According to patent US20250257336A1, “ISOLATED OR ENGINEERED POLYPEPTIDES, MICROORGANISMS AS WELL AS METHOD FOR SYNTHESIZING POLYPHENOLIC PHYTOCHEMICALS PHOSPHATE DERIVATIVE USING THE POLYPEPTIDES OR MICROORGANISMS” (National Taiwan University, priority 2021, published 2025):

Test: enzymatic activity of the PPS of interest and its protein mutant strains, genistein as substrate (G7P formation, HPLC)
Format: biochemical
Settings: Mg2+/ATP, 40° C., 10 minutes, pH 7.8, FIG. 30
Description: After vibration-based mixing and centrifugation (13,000 rpm, 4° C., 5 minutes), the resulting supernatant was collected, diluted, and then analyzed by HPLC. The activity unit was defined as the amount of enzyme required to yield 1 nmol of product per unit time.
Once an enzyme was prepared, its protein concentration was diluted to 0.1 mg/mL. The enzyme and the enzyme reaction liquid were mixed at a ratio of 1:1 (v/v) and were allowed to react at 40° C. for 10 minutes, at the end of which methanol was added to dilute the protein tenfold and thereby terminate the reaction. The changes in concentration of genistein (GEN) and G7P (a product of GEN phosphorylation) were analyzed. The catalytic activity of the PPS of interest in the present invention and its mutant strains were subsequently calculated and compared, as shown in FIG. 30. […] The activity test results of other protein mutant strains show no total loss of activity but a trend of decrease in activity. […] However, while the aforesaid important catalytic sites in the active domain for stabilizing the phosphate group were inferred with relatively great certainty, the amino acids in Arm1 either had relatively poor prediction results or had important catalytic sites composed of non-polar amino acids (which when substituted with Ala produce little change in property) such that the combined use of site-directed mutagenesis and enzymatic activity determination lacked accuracy.

| Molecule | catalytic activity (relative specific activity) compared with the PPS of interest |
| --- | --- |
| K27A: site-directed mutant of the PPS of interest (SEQ ID NO: 13), Lys27 substituted with Ala (protein, listed as Bacillus subtilis) MKKRGVSNMYSVLFRQAEESSQLAGAAGMNLIKLTKHGLPVPDGFIIQTNALARFMEDNQLQETSENVESGIISGTFSDELKDELTSSFYKLRESYRSVAVRSSSASEDLEGASFAGQYETYLNIKTEEEFLAKVKECWASFFSGRVSSYKKKMNNQIAEPLMGIVVQGLIDSEMSGVIFSRNPVTHDDRELLISASYGLGEAVVSGSVTPDTFIVNKSSFEIQKEIGAKEIYMESAAEGIAEKETSEDMRSRFCLTDEQVIELAEITKKTEDLYGYPVDIEFGIADHQIYLLQARPITTIDQDKKAAEEKRSFMITDTDMNDFWLNMESNIEGPVSPLFSSFIVPALEYGLKKSMQKFPIGVVVDEVKLYRGHIYSKNQGGQQPPSEDCGKELFPILSEHMYDIINHTYLPFYRTLDQLAQTEHTAESALDAFQKLKAFYLTAYEEHFNIVFPQILLTNKLQAMYQDIQGESENAHFYEMLTGKMNKSLETDRCLWLFSMEVQENPNLLTIFENNKPEQLQEKLEQTDEGRHFLKNVHEFLQEYGWRSVKSHDLIEQIWVENPYFALANIQNYVRNGYHFDNEFQKTKEKREKLYNEFLENIEDPGLRTEFDRYYQWTLNSANIKDDHHFYIDAMLDAKARIFLLKIGELLAENGVIQDREDLWFLYDDEVEQALLHPVSLQEKAEKRRQIFHEYELAQAPAYLGTPTKEQLKAAEEIVGAVIEDEKNTENHIFGIAASSGIATGPVKIIRDANEFSQFAPGDVLVCKMTTPLWTSLFQDAKAIITDTGGILSHAAIIAREYGIPAVLGTRTATERLRDGDIITVDGSSGKITVVSRS | lost its activity |
| H795A: site-directed mutant of the PPS of interest, His795 substituted with Ala (protein) MKKRGVSNMYSVLFRQAEESSQLAGAKGMNLIKLTKHGLPVPDGFIIQTNALARFMEDNQLQETSENVESGIISGTFSDELKDELTSSFYKLRESYRSVAVRSSSASEDLEGASFAGQYETYLNIKTEEEFLAKVKECWASFFSGRVSSYKKKMNNQIAEPLMGIVVQGLIDSEMSGVIFSRNPVTHDDRELLISASYGLGEAVVSGSVTPDTFIVNKSSFEIQKEIGAKEIYMESAAEGIAEKETSEDMRSRFCLTDEQVIELAEITKKTEDLYGYPVDIEFGIADHQIYLLQARPITTIDQDKKAAEEKRSFMITDTDMNDFWLNMESNIEGPVSPLFSSFIVPALEYGLKKSMQKFPIGVVVDEVKLYRGHIYSKNQGGQQPPSEDCGKELFPILSEHMYDIINHTYLPFYRTLDQLAQTEHTAESALDAFQKLKAFYLTAYEEHFNIVFPQILLTNKLQAMYQDIQGESENAHFYEMLTGKMNKSLETDRCLWLFSMEVQENPNLLTIFENNKPEQLQEKLEQTDEGRHFLKNVHEFLQEYGWRSVKSHDLIEQIWVENPYFALANIQNYVRNGYHFDNEFQKTKEKREKLYNEFLENIEDPGLRTEFDRYYQWTLNSANIKDDHHFYIDAMLDAKARIFLLKIGELLAENGVIQDREDLWFLYDDEVEQALLHPVSLQEKAEKRRQIFHEYELAQAPAYLGTPTKEQLKAAEEIVGAVIEDEKNTENHIFGIAASSGIATGPVKIIRDANEFSQFAPGDVLVCKMTTPLWTSLFQDAKAIITDTGGILSAAAIIAREYGIPAVLGTRTATERLRDGDIITVDGSSGKITVVSRS | total loss of PPS activity |
| D627A: site-directed mutant of the PPS of interest, Asp627 substituted with Ala (protein) MKKRGVSNMYSVLFRQAEESSQLAGAKGMNLIKLTKHGLPVPDGFIIQTNALARFMEDNQLQETSENVESGIISGTFSDELKDELTSSFYKLRESYRSVAVRSSSASEDLEGASFAGQYETYLNIKTEEEFLAKVKECWASFFSGRVSSYKKKMNNQIAEPLMGIVVQGLIDSEMSGVIFSRNPVTHDDRELLISASYGLGEAVVSGSVTPDTFIVNKSSFEIQKEIGAKEIYMESAAEGIAEKETSEDMRSRFCLTDEQVIELAEITKKTEDLYGYPVDIEFGIADHQIYLLQARPITTIDQDKKAAEEKRSFMITDTDMNDFWLNMESNIEGPVSPLFSSFIVPALEYGLKKSMQKFPIGVVVDEVKLYRGHIYSKNQGGQQPPSEDCGKELFPILSEHMYDIINHTYLPFYRTLDQLAQTEHTAESALDAFQKLKAFYLTAYEEHFNIVFPQILLTNKLQAMYQDIQGESENAHFYEMLTGKMNKSLETDRCLWLFSMEVQENPNLLTIFENNKPEQLQEKLEQTDEGRHFLKNVHEFLQEYGWRSVKSHDLIEQIWVENPYFALANIQNYVRNGYHFDNEFQKTKEKREKLYNEFLENIEDPGLRTEFDRYYQWTLNSANIKADHHFYIDAMLDAKARIFLLKIGELLAENGVIQDREDLWFLYDDEVEQALLHPVSLQEKAEKRRQIFHEYELAQAPAYLGTPTKEQLKAAEEIVGAVIEDEKNTENHIFGIAASSGIATGPVKIIRDANEFSQFAPGDVLVCKMTTPLWTSLFQDAKAIITDTGGILSHAAIIAREYGIPAVLGTRTATERLRDGDIITVDGSSGKITVVSRS | significant decrease in protein activity |
| H630A: site-directed mutant of the PPS of interest, His630 substituted with Ala (protein) MKKRGVSNMYSVLFRQAEESSQLAGAKGMNLIKLTKHGLPVPDGFIIQTNALARFMEDNQLQETSENVESGIISGTFSDELKDELTSSFYKLRESYRSVAVRSSSASEDLEGASFAGQYETYLNIKTEEEFLAKVKECWASFFSGRVSSYKKKMNNQIAEPLMGIVVQGLIDSEMSGVIFSRNPVTHDDRELLISASYGLGEAVVSGSVTPDTFIVNKSSFEIQKEIGAKEIYMESAAEGIAEKETSEDMRSRFCLTDEQVIELAEITKKTEDLYGYPVDIEFGIADHQIYLLQARPITTIDQDKKAAEEKRSFMITDTDMNDFWLNMESNIEGPVSPLFSSFIVPALEYGLKKSMQKFPIGVVVDEVKLYRGHIYSKNQGGQQPPSEDCGKELFPILSEHMYDIINHTYLPFYRTLDQLAQTEHTAESALDAFQKLKAFYLTAYEEHFNIVFPQILLTNKLQAMYQDIQGESENAHFYEMLTGKMNKSLETDRCLWLFSMEVQENPNLLTIFENNKPEQLQEKLEQTDEGRHFLKNVHEFLQEYGWRSVKSHDLIEQIWVENPYFALANIQNYVRNGYHFDNEFQKTKEKREKLYNEFLENIEDPGLRTEFDRYYQWTLNSANIKDDHAFYIDAMLDAKARIFLLKIGELLAENGVIQDREDLWFLYDDEVEQALLHPVSLQEKAEKRRQIFHEYELAQAPAYLGTPTKEQLKAAEEIVGAVIEDEKNTENHIFGIAASSGIATGPVKIIRDANEFSQFAPGDVLVCKMTTPLWTSLFQDAKAIITDTGGILSHAAIIAREYGIPAVLGTRTATERLRDGDIITVDGSSGKITVVSRS | significant decrease in protein activity |
| E329A: site-directed mutant of the PPS of interest, Glu329 substituted with Ala (protein) MKKRGVSNMYSVLFRQAEESSQLAGAKGMNLIKLTKHGLPVPDGFIIQTNALARFMEDNQLQETSENVESGIISGTFSDELKDELTSSFYKLRESYRSVAVRSSSASEDLEGASFAGQYETYLNIKTEEEFLAKVKECWASFFSGRVSSYKKKMNNQIAEPLMGIVVQGLIDSEMSGVIFSRNPVTHDDRELLISASYGLGEAVVSGSVTPDTFIVNKSSFEIQKEIGAKEIYMESAAEGIAEKETSEDMRSRFCLTDEQVIELAEITKKTEDLYGYPVDIEFGIADHQIYLLQARPITTIDQDKKAAEEKRSFMITDTDMNDFWLNMASNIEGPVSPLFSSFIVPALEYGLKKSMQKFPIGVVVDEVKLYRGHIYSKNQGGQQPPSEDCGKELFPILSEHMYDIINHTYLPFYRTLDQLAQTEHTAESALDAFQKLKAFYLTAYEEHFNIVFPQILLTNKLQAMYQDIQGESENAHFYEMLTGKMNKSLETDRCLWLFSMEVQENPNLLTIFENNKPEQLQEKLEQTDEGRHFLKNVHEFLQEYGWRSVKSHDLIEQIWVENPYFALANIQNYVRNGYHFDNEFQKTKEKREKLYNEFLENIEDPGLRTEFDRYYQWTLNSANIKDDHHFYIDAMLDAKARIFLLKIGELLAENGVIQDREDLWFLYDDEVEQALLHPVSLQEKAEKRRQIFHEYELAQAPAYLGTPTKEQLKAAEEIVGAVIEDEKNTENHIFGIAASSGIATGPVKIIRDANEFSQFAPGDVLVCKMTTPLWTSLFQDAKAIITDTGGILSHAAIIAREYGIPAVLGTRTATERLRDGDIITVDGSSGKITVVSRS | relatively significant decrease in activity |
| H629A: site-directed mutant of the PPS of interest, His629 substituted with Ala (protein) MKKRGVSNMYSVLFRQAEESSQLAGAKGMNLIKLTKHGLPVPDGFIIQTNALARFMEDNQLQETSENVESGIISGTFSDELKDELTSSFYKLRESYRSVAVRSSSASEDLEGASFAGQYETYLNIKTEEEFLAKVKECWASFFSGRVSSYKKKMNNQIAEPLMGIVVQGLIDSEMSGVIFSRNPVTHDDRELLISASYGLGEAVVSGSVTPDTFIVNKSSFEIQKEIGAKEIYMESAAEGIAEKETSEDMRSRFCLTDEQVIELAEITKKTEDLYGYPVDIEFGIADHQIYLLQARPITTIDQDKKAAEEKRSFMITDTDMNDFWLNMESNIEGPVSPLFSSFIVPALEYGLKKSMQKFPIGVVVDEVKLYRGHIYSKNQGGQQPPSEDCGKELFPILSEHMYDIINHTYLPFYRTLDQLAQTEHTAESALDAFQKLKAFYLTAYEEHFNIVFPQILLTNKLQAMYQDIQGESENAHFYEMLTGKMNKSLETDRCLWLFSMEVQENPNLLTIFENNKPEQLQEKLEQTDEGRHFLKNVHEFLQEYGWRSVKSHDLIEQIWVENPYFALANIQNYVRNGYHFDNEFQKTKEKREKLYNEFLENIEDPGLRTEFDRYYQWTLNSANIKDDAHFYIDAMLDAKARIFLLKIGELLAENGVIQDREDLWFLYDDEVEQALLHPVSLQEKAEKRRQIFHEYELAQAPAYLGTPTKEQLKAAEEIVGAVIEDEKNTENHIFGIAASSGIATGPVKIIRDANEFSQFAPGDVLVCKMTTPLWTSLFQDAKAIITDTGGILSHAAIIAREYGIPAVLGTRTATERLRDGDIITVDGSSGKITVVSRS | significant decrease in protein activity |
